Source: US7008922 (RIJKSUNIVERSITEIT TE LEIDEN, dated 2006)
Values belong to the binder of their own block, whether it stands above or below them.

Biological target: purified HLA-B7 (human)
Test: competition with iodinated … for purified HLA-B7

- IC50: 140 nM
B1: SMCX peptide SPAVDKAQAEL (peptide)
peptide: SPAVDKAQAEL
notes: Synthetic, HPLC-purified peptide; Differs from the SMCY peptide by A for S at position 3 and Q for R at position 8; also called peptide derived from the X chromosomal homolog SMCX (XE169)

- IC50: 34 nM
Binder: SPSVDKARAEL (also called H-Y peptide; peptide 1171) [SMCY peptide SPSVDKARAEL]
